The results in this text go back to the nanobody polyreactivity screen of Harvey et al. (2022).

This data set can be described thus: yeast display, Sf9 membrane polyspecificity reagent, FACS + sequencing; frameworks hold sequencing errors. Put shortly: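 Using colony PCR, genes from sorted yeast display clones were amplified, then sequenced on MiSeq at 2 × 250 and filtered by CDR length. The clones had been stained with 10% biotinylated, detergent-solubilized Sf9 membrane reagent for 1 hour at 4 °C and sorted by FACS into low and high (top ~1%) gates on anti-HA and streptavidin fluorescence. Polyreactivity labels come from the gate of origin.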
“QVQLVESGGGLVQAGGSLRLSCAASGIIFRFYARGWYRQAPGKERELVAAISSSGTRTYYADSVKGRFTISRDNAKNTVYLQMNSLKPEETAVYYCNAAYHYYDYDYWGQGTQVTVSS”: the “polyreactivity (PSR sort gate)” value is “high polyreactivity”.
“QVQLVESGGGLVQAGGSLRLSCAASGIIFRGYAMGWYRQAPGKERELVAGITSGGRTYYADSVKGRFTISRDNAKNTVYLQMNSLKPEDTAVYYCNADAYGDDWKIYDYWGQGTQVTVSS”: the “polyreactivity (PSR sort gate)” value is listed as “low polyreactivity”.
As for “QVQLVESGGGLVQAGGSLRLSCAASGIIFRGYDMGWYRQAPGKERELVAVITDDGSTYYADSVKGRFTISRDNAKNTVYLQMNSLKPEDTAVYYCNADYLLGHWIWYDYWGQGTQVTVSS”, the entry is “low polyreactivity”; as for “QVQLVESGGGLVQAGGSLRLSCAASGIIFRGYVMGWYRQAPGKERELVAAISTSGGRTSYADSVKGRFTISRDYAKNTVYLQMNSLKPEDTAVYYCAARPLYSYSQWGYGYWGQVTQVTVSS”, “high polyreactivity”.
As for “QVQLVESGGGLVQAGGSLRLSCAASGIIFRKYAMGWYRQAPGKERELVAAISFSGGTTYYADSVKGRFTISRDNAKNTVYLQMNSLKPEDTAVYYCAADPVAYVIDDYYWGQGTQVTVSS”, the entry is “high polyreactivity”; as for “QVQLVESGGGLVQAGGSLRLSCAASGIIFRNYAMGWYRQAPGKERELVAAISRNGGSTYYADSVKGRFTISRDNAKNTVYLQMNSLKPEDTAVYYCAARASYPNWTYYYWGKGTQVTVSS”, “high polyreactivity”.
Take “QVQLVESGGGLVQAGGSLRLSCAASGIIFRPYAMGWYRQAPGTEMELVAAITGSGVSTYYADSVKGRFTISRDNAKNTVYLQMNSLKPEDTAVYYCAKRYNRGYHRYDYWGQGTQVTVSS”: the “polyreactivity (PSR sort gate)” value is listed as “low polyreactivity”.
The same measure for “QVQLVESGGGLVQAGGSLRLSCAASGIIFRRNAMGWYRQAPGKERELVATISRSGGSTYYADSVKGRFTISRYNAKNTVYLQMNSLKPEDTAVYYCNTLYPRPYAINPRDYWGQGTQVTVSS”: “high polyreactivity”.
As for “QVQLVESGGGLVQAGGSLRLSCAASGIIFRRYAMGWYRQAPGKERELVAAIRTSGGNTYYADSVKRRFTISRDNAKNTVYLQMNSLKPEDTAVYYCAARKYHYRYGYWGQGTQVTVSS”, the entry is “high polyreactivity”.
The same measure for “QVQLVESGGGLVQAGGSLRLSCAASGIIFRRYAMGWYRQAPGKERELVAAISSGGRTYYADSVKGRFTISRDNAKNTVYLQMNSLKPEDTAVYYCNARAFARYWWYEYWGQGTQVTVSS”: “high polyreactivity”.
On to “QVQLVESGGGLVQAGGSLRLSCAASGIIFRRYAMGWYRQEPGKARELVAAITSGGDTNYADSVKGRFTLSRDNAKNTVYLQMNSLKPEDTAVYYCNAGLRGVRRYGFDYWGQGTQVTVSS”, for which the “polyreactivity (PSR sort gate)” value is “high polyreactivity”.
As for “QVQLVESGGGLVQAGGSLRLSCAASGIIFRSNAMGWYRQAAGNERELVAAISQRGGSTYYADSVKGRFTISRDNAKNTVYLQMNSLKPEDTAVYYCNALQRRYGGGGNDYWGQGTQVTVSS”, the entry is “high polyreactivity”; as for “QVQLVESGGGLVQAGGSLRLSCAASGIIFRSNAMGWYRQAPGKERELVAAISRTGRTYYADSVKGRFTISRDNAKNTVNLQMNSLKPEDTAVYYCAVGIVQRDSRYYYWGQGTQVTVSS”, “high polyreactivity”; as for “QVQLVESGGGLVQAGGSLRLSCAASGIIFRSNAMGWYRQAPGKERELVAAISWSGSSTYYADSVKGRFTISRDNAKKTVYLQMNSLKPEDTAVYYCAAYDFYGIYWGQGTQVTVSS”, “low polyreactivity”.
Turning to “QVQLVESGGGLVQAGGSLRLSCAASGIIFRTYAMGWYRQAPGKEREFVAAISWSGGRTYYADSVKGRFTISRDNAKNTVYLQMNSLKPEDTAVYYCAALRSSQSKGDYWGQGTQVTVSS”, the “polyreactivity (PSR sort gate)” value is recorded as “high polyreactivity”.
The same measure for “QVQLVESGGGLVQAGGSLRLSCAASGIIFRVNAMGWYRQAPGKERELVAAISSGGRTYYADSVKGRFTISGDNAKNTVSLQMNSLKPEDTAVYYCNAGRLRYIFKSYDYWGQGTQVSVSS”: “high polyreactivity”; for “QVQLVESGGGLVQAGGSLRLSCAASGIIFRYNAMGWYRQAPGKERELVADITFSVGSTNYADSVKGRFTISRDNAKNTVYLQMNSLKPEDTAVYYCAAKFHSTYGNDDWGQGTQVTVSS”: “low polyreactivity”.
Turning to “QVQLVESGGGLVQAGGSLRLSCAASGIIFRYYAMGWYRQAPGKERELVAAISGRGGSTYYADSVKGRFTISRDNAKNTVYLQMNSLKPEDTAVYYCAIYVSWPLYYYWGQGTQVTVSS”, the “polyreactivity (PSR sort gate)” value is “low polyreactivity”.
As for “QVQLVESGGGLVQAGGSLRLSCAASGIIFRYYAMGWYRQAPGKERELVAAITVNGGRTYYADSVKGRFTISRDNAKNNVYLQMNSLKPEVTAVYYCAAYPHRYRVTPYPSVVSLDNYWGQGTQVTVSS”, the entry is “low polyreactivity”.
The same measure for “QVQLVESGGGLVQAGGSLRLSCAASGIIFRYYAMGWYRQAPGKERELVATISWRGGSTYYADSVKGRFTISRDNAKNTVYLQMNSLKPEDTAVYYCAAAISYSARGGKGLGGYWGQGTQVTVSS”: “high polyreactivity”; for “QVQLVESGGGLVQAGGSLRLSCAASGIIFSANAMGWYRQAPGKERELVAAISRDGSTYYADSVKGRFTISRDNAKNTVYLQMNSLKPEDTAVYYCAVDPIYYWRPGYDYWGQGTQVTVSS”: “low polyreactivity”.
As for “QVQLVESGGGLVQAGGSLRLSCAASGIIFSAYAMGWYRQPPGKERELVAVIDSDGDGTYYADSVKGRFTISRDNAKNTVYLQMNSLKPEDTAVYYCAADYEYTRVEGWFIGFDEYGYWGQGTQVTVSS”, the entry is “low polyreactivity”; as for “QVQLVESGGGLVQAGGSLRLSCAASGIIFSDNAMGWYRQAPGKERELVAAIDWSGGSTYYADSVKGRFTISRDNAKNTVYLQMNSLKPEDTAVYYSAAEYRDYVPVNDTGDYWGQGTQVTVSS”, “low polyreactivity”.
For the sequence “QVQLVESGGGLVQAGGSLRLSCAASGIIFSDNAMGWYRQAPGKERELVAAIDWSGGSTYYADSVKGRFTISRDNAKNTVYLQMNSMKPEDSAVYDCAAEYRDYVPVNDTGDYWGQGTQVTVSS”, the “polyreactivity (PSR sort gate)” value was “low polyreactivity”.
The same measure for “QVQLVESGGGLVQAGGSLRLSCAASGIIFSDYTMGWYRQAPGKERELVAAITWSGASTYYADSVKGRFTISRDNAKNTVYLQMNSLKPEDTAVYYCAAREYWYPGYVSWFDYWGQGTQVTVSS”: “high polyreactivity”.
The same measure for “QVQLVESGGGLVQAGGSLRLSCAASGIIFSGYAKGWSRQAPGKERELVAAISYSGASTYYADSVKGRFTISRDNAKNSVYLLMNSLKPEDTAVYFCAADRRYGRYWNGWSYYYWGQGTQVTVSS”: “high polyreactivity”; for “QVQLVESGGGLVQAGGSLRLSCAASGIIFSIYAMGWYRQAPGKERELVAAISGRGGRTYYADSVKGRFTISRDNAKNTVYLQMNSLKPVDTAVYYCNAEYHDLYDYWGQGTQVTVSS”: “low polyreactivity”.
As for “QVQLVESGGGLVQAGGSLRLSCAASGIIFSKNTMGWYRQAPGKERELVAAISRSGGTSTYYADSVKGRFTISRDNAKNTVYLQMNSLKPEDTAVYYCAAGVPRIGGYYYWGQGTQVTVSS”, the entry is “low polyreactivity”; as for “QVQLVESGGGLVQAGGSLRLSCAASGIIFSQYAMGWYRQAPGKERELVAGITRSGGSTYYADSVKGRFTISRDNAKNTVYLQMNSLKPEDTAVYYCAAVQRYEYGYWGQGTQVTVSS”, “high polyreactivity”; as for “QVQLVESGGGLVQAGGSLRLSCAASGIIFSRNVMGWYRPAPGKERELVAVISGSGGSTYYADSVKGRFTISRDNAKNTVYLQMNSLKPEDSAVYYCAASYEYLWGYDYEYWGQGTQVTVSS”, “high polyreactivity”.
As to “QVQLVESGGGLVQAGGSLRLSCAASGIIFSSNAMGWYRPAPGKERELVAAISNTGRTNYADSVKGRFTISRDNEKNTVYLQMNSLKPEDTAVYYCDARLSRRYYSYYYWGQGTQVTVSS”, the “polyreactivity (PSR sort gate)” value is recorded as “high polyreactivity”.
As for “QVQLVESGGGLVQAGGSLRLSCAASGIIFSSYAMGWYRQAPGKERELVAAISWSGGSTYYADSVKGRFTISRDNAKNTVYLQMNSLKPEDTAVYYCAAYPVWYYEYDYWGQGTQVTVSS”, the entry is “low polyreactivity”; as for “QVQLVESGGGLVQAGGSLRLSCAASGIIFSTYAMGWYRQAPGKERELVAAISSGGRTYYADSVKGRFTISRDNAKNTVYLQMNSLKPEDTAVYYCAASYYRYYSGWTPYYYWGQGTQVTVSS”, “high polyreactivity”; as for “QVQLVESGGGLVQAGGSLRLSCAASGIIFSTYAMGWYRQAPGKERELVAAITSTGSTNYADSVKGRFTISRDNAKNTVYLQMNSLKPEDTAVYYCAARYAGPSPTDTGHDYWGQGTQVTVSS”, “low polyreactivity”.
Take “QVQLVESGGGLVQAGGSLRLSCAASGIIFSWYAMGWYRQAPGKERELVASITIGGNTNYADSVKGRFTISRDNAKNTVYLQMNSLKPEDTAVYYCAAQTFWYGYGGGDYWGEGTQVTVSS”: the “polyreactivity (PSR sort gate)” value was “low polyreactivity”.
In the case of “QVQLVESGGGLVQAGGSLRLSCAASGIIFSWYAMGWYRQAPGKERELVATISGGGGSTYYADSVKGRFTISRDNAKNTVYLQMNSLKPEDTAVYYCAADYWNFNWRYKLYRPYDYWGQGTQVTVSS”, the “polyreactivity (PSR sort gate)” value is “high polyreactivity”.
As for “QVQLVESGGGLVQAGGSLRLSCAASGIIFSYNAMGWYRQAPGKERELVAAINSSGGSTNYADSVKGRFTISRDNAKNTVYLQMNSLKPEDTAVYYCAARDATYYGVWRYYGIDDYWGQGTQVTVSS”, the entry is “low polyreactivity”.
Consider “QVQLVESGGGLVQAGGSLRLSCAASGIIFSYNAMGWYRQAPGKERELVAAITSIGGRTYYADSVKGRFTISRDNAKNTVYLKMNSLKPEDCAVYYCAVVAAFYNSPEGDYWGQGTQVTVSS”, for which the “polyreactivity (PSR sort gate)” value is “low polyreactivity”.
The same measure for “QVQLVESGGGLVQAGGSLRLSCAASGIIFSYYAMGWYIQAPGKERELVAVINSGGSTYYADSVKGRFTISRDNAKNTVYLQMNSLKPEDTAVYYCAATIFVKFYYWGQGTQVTVSS”: “low polyreactivity”; for “QVQLVESGGGLVQAGGSLRLSCAASGIIFSYYAMGWYRQAPGKERELVAAISSSGVSTNYADSVKGRFTISRDNAKNTVYLQMNSLKPEDTAVYYCNGRGYYWYRPYVNSNGGYWGQGTQVTVSS”: “high polyreactivity”.
The same measure for “QVQLVESGGGLVQAGGSLRLSCAASGIIFSYYAMGWYRQAPGKERELVAAITWSVGSTDYADSVKGRFTISRDNAKNTVYLQMNSLKPEDTAVYYCAATITTLDWDDRYDYWGQGTQETVSS”: “low polyreactivity”.
